In article PMC7145534, “Are the intrinsically disordered linkers involved in SSB binding to accessory proteins?” (Nucleic Acids Research, 2019):
Entries after “also recorded” stand apart in the source; their conditions may differ.

Assays:
E. coli RecO = assay: ITC of SSB tetramers (apo) binding to RecO; set-up: species or system Escherichia coli
Description: The concentrations were determined thereafter.

RecO = settings: for sedimentation coefficient, SSB alone: 0.35 μM tetramer, BTP pH 7.0, 200 mM NaCl, 25°C, no RecO
Description: Sedimentation velocity experiments were performed with an Optima XL-A analytical ultracentrifuge and An50Ti rotor (Beckman Coulter, Fullerton, CA, USA) at 42 000 rpm (25°C) as described ([50]). The concentrations used were 1–2 μM SIPs, 0.3–0.5 μM SSB tetramers, while monitoring absorbance at 230 or 280 nm. The experiments with SSB-Ct peptides were performed in Buffer BTP at pH 8.0 and 50 mM NaCl. The experiment with SSB proteins and the deletion constructs were performed in Buffer BTP at pH 7.0 and 200 mm NaCl. The sample (380 μl) and buffer (394 μl) were loaded into each sector of an Epon charcoal-filled two-sector centerpiece. Absorbance data were collected by scanning the sample cells at intervals of 0.003 cm. Data were analyzed using SEDFIT, to obtain c(s) distributions ([70]). The c(s) distribution function defines the populations of species with different sedimentation rates and represents a variant of the distribution of Lamm equation solutions ([70]). The density and viscosity of the experimental buffers at 25°C were determined using [sequence] […] The partial specific volume of (dT)70 used was 0.56 ml/g. In the experiments involving more than one species, the partial specific volumes of complexes were calculated assuming additivity using Equation (4), where = number of moles of species ‘i’, = molecular weight of species ‘i’, and = partial specific volume of each species i.(4)
RecO binding to SSB tetramers with portions of the IDL deleted. […] (C) The results of sedimentation velocity experiments, plotted as the c(s) distribution ([70]) for each SSB construct (0.35 μM tetramer) in the absence (black lines) and presence (red lines) of 2.5 molar excess of RecO (3.5 μM) per C-terminus.

(dT)70 = assay: ITC of SSB tetramers with (dT)70; format: binding
Description: Isothermal titration calorimetry (ITC) experiments were performed using a VP-ITC titration microcalorimeter (Malvern Panalytical, Malvern, UK) ([68]). All proteins and oligonucleotides were dialyzed extensively against the indicated buffer and cleared by centrifugation at 14 000 rpm for 15 min at 4°C. The concentrations were determined thereafter. For experiments with the SSB-Ct peptides and SIPs, 40–50 μM peptides were titrated into 1–2 μM SIPs in Buffer BTP at pH 8.0 and 50 mM NaCl. For experiments with the full-length SSB and its deletion mutants and SIPs, SSB tetramer (8–10 μM) was titrated into SIP (1 μM) in Buffer BTP at pH 7.0 and 200 mM NaCl. The heats of dilution were obtained by blank titrations in which the titrant species is titrated into the buffer, and corrections for heats of dilution were applied.
RecO (1 µM) in buffer BTP (pH 7.0, 200 mM NaCl) at 15° C and (b) 25° C.
(f) (dT)70 (15 µM) is titrated into

[1] = target: Escherichia coli PriC (E. coli) (UniProt P23862); assay: AUC; sedimentation velocity, 42 000 rpm, 25°C; PriC at 2 μM, without and with 30-fold excess P15; buffer BTP pH 8.0, same conditions as the ITC of PriC
χ = assay: ITC of SSB-A binding to χ; set-up: species or system Escherichia coli; settings: Buffer T pH 8.1, 200 mM NaCl, 25°C
Description: The concentrations were determined thereafter. […]
Figure S7. Results from various control ITC titrations of (a) SSB-A and RecO at 15°C and (b) 25°C, (c) SSB-A and c, (d) P65 and (dT)70, (e) (dT)70 and SSB-A, and (f) (dT)70 and wtSSB. (a) SSB-A (10 µM), a homo-tetrameric SSB variant containing an additional six amino acids, TGASGT, at the C-terminus of each subunit, was titrated into […]
(5.9 µM) was titrated into c (1 µM) in buffer T (10 mM Tris-HCl, pH 8.1, 200 mM NaCl, […]
0.1 mM EDTA) at 25° C. […] (d) dT70 (60 µM) was […]
titrated into P65 (2 µM) in buffer BTP (pH 7.0, 20 mM NaCl) at 25° C. P65, the full-length […]
(dT)70. (e) (dT)70 (15 µM) was titrated into SSB-A (1 µM) in buffer T at 25° C. SSB-A (also on this page, place not known: 15°C 25°C. 25°C. 25°C. 25°C. 2.00 kcal mol-1 of injectant kcal mol-1 of injectant [SSB-A]tot/[RecO]tot kcal mol-1 of injectant [SSB-A]tot/[c]tot (f)(d))

PriA = settings: previous study; cited from earlier work
Description: All binding reactions were performed under identical solution conditions, although additional experiments were performed at a lower [NaCl] for PriC as indicated, ...

DNA Pol III (χ) = settings: cited from earlier work
Source text: When DNA is bound to the DBD, the acidic tip no longer interacts with the DBD and thus is more available to interact with a SIP. This is supported by the observation that ΔH = −6.0 ± 0.1 kcal/mol for RecO binding to the SSBΔ120-166–(dT)70 complex, which should not contain contributions from the acidic tip-DBD intramolecular interactions.

Escherichia coli PriC [2] = target: T1, Escherichia coli PriC (E. coli, UniProt P23862 1-175); assay: ITC; SSB-Ct peptide titrated into PriC; buffer BTP pH 8.0, 10 mM NaCl, 25°C; N fixed to 1 for the values of Table 1; settings: both partners purified
T1 construct: E. coli PriC, replication restart protein; source: E. coli BL21(DE3), plasmid pET11a-EcoPriC (pAM001), purified (Macro-Prep High S, HiPrep Sephacryl S-200 HR)
T1 sequence (looked up): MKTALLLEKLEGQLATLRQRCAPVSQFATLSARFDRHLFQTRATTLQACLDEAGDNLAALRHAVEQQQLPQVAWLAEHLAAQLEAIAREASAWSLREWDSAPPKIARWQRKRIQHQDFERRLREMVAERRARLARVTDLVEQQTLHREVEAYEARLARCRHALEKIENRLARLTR

[3] = target: T2, Escherichia coli RecO protein (E. coli, UniProt P0A7H3 1-242); assay: ITC; P15 and RecO; buffer BTP pH 7.0, 200 mM NaCl, 25°C; N fixed to 1; settings: both partners purified
T2 construct: E. coli RecO, recombination mediator of the RecF pathway; source: E. coli BL21(DE3)pLysS, plasmid pMCSG7, purified (Ni-NTA, HiTrap Heparin HP) after His-tag cleavage with TEV protease
T2 sequence (looked up): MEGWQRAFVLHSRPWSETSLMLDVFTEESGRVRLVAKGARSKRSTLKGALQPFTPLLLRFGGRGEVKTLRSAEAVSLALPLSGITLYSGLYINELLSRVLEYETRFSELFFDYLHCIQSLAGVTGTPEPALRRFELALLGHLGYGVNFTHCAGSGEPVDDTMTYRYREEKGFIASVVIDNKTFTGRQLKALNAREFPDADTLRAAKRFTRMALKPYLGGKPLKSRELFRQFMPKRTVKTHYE

[4] = target: T2, Escherichia coli RecO protein; assay: ITC; P15 and RecO; buffer BTP pH 7.0, 200 mM NaCl, 15°C; N fixed to 1; settings: both partners purified
[5] = target: T2, Escherichia coli RecO protein; assay: ITC; SSB-Ct peptide (40–50 μM) titrated into SIP (1–2 μM); buffer BTP (20 mM Bis-Tris Propane, 25% glycerol, 1 mM TCEP) pH 8.0, 50 mM NaCl, 25°C; observed association constants; N fixed to 1 for the values of Table 1; settings: both partners purified
Escherichia coli PriA [6] = target: T3, Escherichia coli PriA (E. coli, UniProt P17888 1-732); assay: as above; settings: both partners purified
T3 construct: E. coli PriA, replication restart protein

[7] = target: T4, chi (χ) subunit of DNA polymerase III (E. coli, UniProt P28905 1-147); assay: as above; settings: both partners purified
T4 construct: E. coli DNA polymerase III chi subunit; also called χ protein; DNA Pol III (χ)

Escherichia coli PriC [8] = target: T1, Escherichia coli PriC; assay: ITC; SSB-Ct peptide titrated into PriC; buffer BTP pH 8.0, 10 mM NaCl, 25°C; N fixed to 1 for the values of Table 1; settings: both partners purified; remark: listed apart in the source
[9] = target: T2, Escherichia coli RecO protein; assay: ITC; P15 and RecO; buffer BTP pH 7.0, 200 mM NaCl, 37°C; N fixed to 1; settings: both partners purified
[10] = target: T2, Escherichia coli RecO protein; assay: ITC; P15 and RecO; buffer BTP pH 8, 200 mM NaCl, 25°C; N fixed to 1; settings: both partners purified
[11] = target: T2, Escherichia coli RecO protein; assay: ITC; SSB-Ct peptide (40–50 μM) titrated into SIP (1–2 μM); buffer BTP (20 mM Bis-Tris Propane, 25% glycerol, 1 mM TCEP) pH 8.0, 50 mM NaCl, 25°C; observed association constants; N fixed to 1 for the values of Table 1; settings: both partners purified; remark: listed apart in the source
Escherichia coli PriA [12] = target: T3, Escherichia coli PriA; assay: as above; settings: both partners purified; remark: listed apart in the source
[13] = target: T4, chi (χ) subunit of DNA polymerase III; assay: as above; settings: both partners purified; remark: listed apart in the source
[14] = target: Escherichia coli RecO protein (E. coli) (UniProt P0A7H3); assay: ITC; apo SSB tetramer (9–10 μM) titrated into RecO (1 μM); buffer BTP pH 7.0, 200 mM NaCl, 25°C; N fixed to 4 RecO per tetramer, K and ΔH per C-terminus
[15] = target: Escherichia coli RecO protein (E. coli) (UniProt P0A7H3); assay: ITC; SSB tetramer (10 µM) titrated into RecO (1 µM); buffer BTP pH 7.0, 200 mM NaCl, 10°C; N floated, N = RecO per SSB tetramer; ΔH per C-terminus
[16] = target: Escherichia coli RecO protein (E. coli) (UniProt P0A7H3); assay: ITC; apo SSBΔ120-166 tetramer and RecO; 10°C; N fixed to 4 in Table 3
[17] = target: Escherichia coli RecO protein (E. coli) (UniProt P0A7H3); assay: ITC; SSB tetramer–(dT)70 complex (9–10 μM) titrated into RecO (1 μM); buffer BTP pH 7.0, 200 mM NaCl, 25°C; N fixed to 4, K and ΔH per C-terminus
[18] = target: the molecule itself; assay: AUC; sedimentation velocity, 42 000 rpm, 25°C; SSB construct 0.35 μM tetramer alone and with 3.5 μM RecO (2.5 molar excess per C-terminus); buffer BTP pH 7.0, 200 mM NaCl
SSB-A = SSB-A (Escherichia coli, UniProt P0AGE0 2-178+=TGASGT, internal_change); assay: ITC; (dT)70 titrated with SSB-A; stoichiometric binding, 1:1; dH similar to wtSSB (-131 kcal/mol in earlier work); ITC; buffer BTP (20 mM Bis-Tris propane, 25% v/v glycerol, 1 mM TCEP), pH 7.0, 200 mM NaCl, 25 C for SSB experiments; buffer/pH of individual (dT)70 titrations; settings: protein: recombinant; chain copies: 4; single-stranded
SSB (wtSSB) = SSB (wtSSB) (Escherichia coli, UniProt P0AGE0 2-178); assay: ITC; 1:1 complex at 200 mM NaCl, (SSB)65 mode; (dT)70 (15 uM) titrated with SSB; ITC; buffer BTP (20 mM Bis-Tris propane, 25% v/v glycerol, 1 mM TCEP), pH 7.0, 200 mM NaCl, 25 C for SSB experiments; buffer/pH of individual (dT)70 titrations; settings: protein: recombinant; chain copies: 4; single-stranded
[19] = target: P65 (SSB C-terminal peptide) (Escherichia coli, UniProt P0AGE0 114-178); assay: ITC; no detectable interaction; ITC; buffer BTP (20 mM Bis-Tris propane, 25% v/v glycerol, 1 mM TCEP), pH 7.0, 200 mM NaCl, 25 C for SSB experiments; buffer/pH of individual (dT)70 titrations; settings: single-stranded

## wtSSB: E. coli single strand DNA binding protein, homo-tetramer, wild type
E. coli RecO; apo, 25°C, BTP pH 7, 200 mM NaCl
  K: (1.5 ± 0.2) × 10^6 M^−1
RecO
  sedimentation coefficient, SSB alone: 1.4 S
RecO; 10-fold molar excess of RecO to SSB tetramer
  complex formation with RecO: RecO forms complexes with wtSSB
(dT)70; BTP pH 7.0, 200 mM NaCl
  binding to (dT)70 by ITC: binds stoichiometrically

## Escherichia coli PriC (from UniProt P23862 1-175) (natural protein)
[1]
  percent of the monomeric species: 48.1%

## SSB-A: additional six amino acids, TGASGT, extending the C-terminus of wtSSB
E. coli RecO; absence of ssDNA, BTP pH 7.0, 200 mM NaCl, 15°C and 25°C
  binding to RecO by ITC: not interact with RecO; also recorded: eliminates binding to RecO
χ
  binding to χ by ITC: does not show binding
(dT)70; Buffer T pH 8.1, 200 mM NaCl, 25°C
  binding to (dT)70 by ITC: binds stoichiometrically

## MDFDDDIPF [P9]
PriA
  binding to PriA: binds with specificity
DNA Pol III (χ)
  affinity and ΔH for χ binding versus (dT)70-bound SSB: very similar
DNA Pol III (χ); previous study
  binding to χ: binds with specificity

B1: SSB-Ct peptide P15 (C-terminal 15 amino acids of E. coli SSB) (peptide, UniProt P0AGE0 164-178, looked up)
peptide: PSNEPPMDFDDDIPF
notes: E. coli SSB, the C-terminal 15 amino acids; Holds none of the PXXP motifs; also called acidic tip peptide; source: synthetic peptide; bought: WatsonBio
Escherichia coli PriC [2]
  dH: -2.7 ± 0.1 kcal/mol
[3]
  dH: -6 ± 0.2 kcal/mol
[4]
  dH: -2.4 ± 0.2 kcal/mol
[5]
  dH: -5.2 ± 0.1 kcal/mol
Escherichia coli PriA [6]
  dH: -9.6 ± 0.3 kcal/mol
[7]
  dH: -9.3 ± 0.1 kcal/mol
Escherichia coli PriC [8]
  stoichiometry N: 1
[9]
  dH: -7.8 ± 0.8 kcal/mol
[10]
  dH: -3.9 ± 0.1 kcal/mol
[11]
  stoichiometry N: 1
Escherichia coli PriA [12]
  stoichiometry N: 1
[13]
  stoichiometry N: 1

B2: SSBΔ120-166 tetramer (natural protein, E. coli, UniProt P0AGE0 1-178, looked up)
chain: MASRGVNKVILVGNLGQDPEVRYMPNGGAVANITLATSESWRDKATGEMKEQTEWHRVVLFGKLAEVASEYLRKGSQVYIEGQLRTRKWTDQSGQDRYTTEVVVNVGGTMQMLGGRQGGGPPMDFDDDIPF
notes: E. coli SSB with residues 120-166 of the IDL deleted, acidic tip kept; All three PXXP motifs deleted; only nine residues of the IDL left; Used apo and in complex with (dT)70
E. coli RecO; apo, 25°C, BTP pH 7.0, 200 mM NaCl, N fixed to 4
  K (observed association equilibrium constant): Not detected
E. coli RecO; apo, 25°C, pH 7.0, 200 mM NaCl
  RecO binding detected by ITC: undetectable; also recorded: could not be detected
RecO
  sedimentation coefficient, SSB alone: 1.3 S
[14]
  dH (per tip, ΔH/4): 0 kcal/mol
[15]
  Ka: 373000 M⁻¹
  stoichiometry N: 4.03
[16]
  Ka: 370000 M⁻¹
  dH (per tip, ΔH/4): -8.1 kcal/mol
[17]
  dH (per tip, ΔH/4): -6 kcal/mol
[18]
  stoichiometry N: 4

B3: (dT)70 (ssDNA)
DNA: TTTTTTTTTTTTTTTTTTTTTTTTTTTTTTTTTTTTTTTTTTTTTTTTTTTTTTTTTTTTTTTTTTTTTT
SSB-A
  binding result: binds
SSB (wtSSB)
  binding result: binds
[19]
  binding result: no binding
